Key:
[1] = target: BG505 SOSIP.664 trimer (HIV-1 strain BG505); assay: AUC
[2] = target: BG505 SOSIP.664 201C-433C (HIV-1 strain BG505); assay: AUC

Substance | stoichiometry N (CD4 per trimer) [1] | stoichiometry N (CD4 per trimer) [2]
2-domain soluble CD4 (CD4 D1D2) (domain or fragment) | 3 | –
2-domain soluble CD4 (domain or fragment) | – | 1
4-domain CD4 (domain or fragment) | 2 | 1
4-domain soluble CD4 (CD4 D1D4) (domain or fragment) | 3 | –

Reference: publication PMC4706170
